What was measured:
[1] = test system: CA 15-3, CA-125, CA 19-9, CEA, LDH and PSA; assay: Phase I: circulating tumor biomarkers; format: in vivo, human
Description: Several well-established circulating biomarkers were evaluated to monitor the response to therapy. They included CA 15-3, CA-125, CA 19-9, CEA, LDH and PSA.

sCLU = molecular target: T1, sCLU (Macaca mulatta, UniProt F6S885); assay: sCLU serum concentrations after single dose of AB-16B5; format: in vivo; settings: Rhesus monkeys
T1 construct: from tissue; host or cells: serum of Rhesus monkeys dosed with AB-16B5
Description: (§1) There was an approximate 70% increase in systemic exposure following repeated dosing from Day 1 to Day 26 which is consistent with the elimination half-life of AB-16B5 and the dosing intervals. […] The sCLU concentrations were generally back to their baseline levels after 3 to 5 days. The concurrent decrease in sCLU concentrations immediately following dosing with AB-16B5 is consistent with an antigen-sink phenomenon.

[2] = Non-clinical pharmacokinetics, single and repeat-dose, monkeys; format: in vivo; settings: Rhesus monkeys
Description: as §1

[3] = Non-clinical toxicity, weekly administration, rats; format: in vivo, Sprague-Dawley rats
Description: This finding most likely reflects a slight antigenic stimulation by AB-16B5 in these 2 regional lymph nodes.

T1 sequence (F6S885 22-448): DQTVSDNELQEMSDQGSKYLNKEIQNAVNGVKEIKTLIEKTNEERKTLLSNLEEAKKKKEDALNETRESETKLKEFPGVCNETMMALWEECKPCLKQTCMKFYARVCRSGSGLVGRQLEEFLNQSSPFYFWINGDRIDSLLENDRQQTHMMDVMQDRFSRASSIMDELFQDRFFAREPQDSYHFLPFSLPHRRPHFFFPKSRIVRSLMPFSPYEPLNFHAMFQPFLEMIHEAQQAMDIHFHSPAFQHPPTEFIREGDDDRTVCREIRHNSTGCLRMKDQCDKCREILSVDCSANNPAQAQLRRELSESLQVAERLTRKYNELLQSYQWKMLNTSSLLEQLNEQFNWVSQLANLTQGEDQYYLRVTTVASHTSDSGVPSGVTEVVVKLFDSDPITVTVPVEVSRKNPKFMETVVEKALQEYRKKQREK

AB-16B5: humanized IgG2 monoclonal antibody targeting sCLU; light chain SEQ ID NO:11, heavy chain SEQ ID NO:12
tumor biomarker levels over time ([1]; CA 15-3, CA-125, CA 19-9, CEA, LDH and PSA, correlated with disease progression): increased over time
level of CEA ([1]; in few patients): remained stable or decreased
sCLU serum concentrations following dosing (sCLU): decreased significantly
systemic exposure with increasing dose levels [2]: generally greater than dose proportional
drug accumulation in terms of Cmax ([2]; repeated dosing once or twice weekly): no evidence of drug accumulation
No Observable Adverse Effect Level (NOAEL) ([3]; Sprague-Dawley rats, weekly administration): 100 mg/kg/dose
incidence of minimal lymphoid hypercellularity, mandibular lymph node ([3]; rat, in vivo): 1/20
incidence of minimal lymphoid hypercellularity, mesenteric lymph node ([3]; rat, in vivo): 2/20
treatment-related clinical signs and changes (body weight, food consumption, ophthalmology, clinical pathology, organ weights) ([3]; rat, in vivo): did not result in any treatment-related clinical signs
